Values quoted from earlier work in patent US12186373B2, “Compositions in the form of an injectable aqueous solution comprising amylin, an amylin agonist receptor or an amylin analogue and a co-polyamino acid” (ADOCIA, priority 2017, dated 2025).

Conditions: acidic pH

amylin: peptide of 37 amino acids which is stored and co-secreted with insulin (KCNTATCATQRLANFLVHSSNNFGAILSSTNVGSNTY; Islet amyloid polypeptide; UniProt P10997 34-70, looked up)
time for which amylin is stable: about fifteen minutes
